# Test results as given in patent publication US20220089784A1 (University of California, published 2022).
# Like-named read-outs stand apart in the source and are kept apart here.
# T1: BoNT/B1 (Clostridium botulinum, UniProt P10844 2-1291)
# T1 sequence: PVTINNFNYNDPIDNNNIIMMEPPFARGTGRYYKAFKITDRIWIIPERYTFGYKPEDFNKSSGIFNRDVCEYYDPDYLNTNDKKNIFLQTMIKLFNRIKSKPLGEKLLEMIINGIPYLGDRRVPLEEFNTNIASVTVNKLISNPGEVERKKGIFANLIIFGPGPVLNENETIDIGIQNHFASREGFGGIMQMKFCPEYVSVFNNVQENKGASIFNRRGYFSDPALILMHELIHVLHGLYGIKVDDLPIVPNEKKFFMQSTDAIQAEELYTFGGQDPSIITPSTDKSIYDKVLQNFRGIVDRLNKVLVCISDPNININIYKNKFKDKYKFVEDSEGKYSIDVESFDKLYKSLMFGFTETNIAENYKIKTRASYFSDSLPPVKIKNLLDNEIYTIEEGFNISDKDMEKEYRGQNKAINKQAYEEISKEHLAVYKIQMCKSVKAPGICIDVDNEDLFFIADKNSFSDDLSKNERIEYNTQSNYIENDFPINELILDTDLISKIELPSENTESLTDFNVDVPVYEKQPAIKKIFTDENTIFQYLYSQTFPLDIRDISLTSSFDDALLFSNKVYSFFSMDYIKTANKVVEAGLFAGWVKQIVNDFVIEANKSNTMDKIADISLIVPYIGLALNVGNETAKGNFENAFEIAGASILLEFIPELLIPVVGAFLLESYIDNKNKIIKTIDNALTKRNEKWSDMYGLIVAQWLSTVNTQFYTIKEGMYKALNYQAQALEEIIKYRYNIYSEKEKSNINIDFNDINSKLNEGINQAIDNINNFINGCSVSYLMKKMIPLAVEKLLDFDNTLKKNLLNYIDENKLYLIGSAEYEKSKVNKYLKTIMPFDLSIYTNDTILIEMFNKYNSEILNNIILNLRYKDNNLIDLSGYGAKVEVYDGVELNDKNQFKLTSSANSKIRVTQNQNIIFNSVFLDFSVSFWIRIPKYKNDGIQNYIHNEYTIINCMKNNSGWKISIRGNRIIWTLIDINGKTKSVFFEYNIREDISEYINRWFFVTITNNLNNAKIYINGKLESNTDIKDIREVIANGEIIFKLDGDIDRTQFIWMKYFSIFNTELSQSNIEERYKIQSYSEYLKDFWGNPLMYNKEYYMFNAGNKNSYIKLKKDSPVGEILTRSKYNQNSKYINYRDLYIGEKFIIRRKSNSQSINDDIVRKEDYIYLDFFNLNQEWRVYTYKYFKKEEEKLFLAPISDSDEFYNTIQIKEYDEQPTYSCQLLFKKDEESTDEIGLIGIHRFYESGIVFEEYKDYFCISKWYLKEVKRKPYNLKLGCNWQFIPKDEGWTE
# T2: BoNT/B HC (C-terminal domain of the BoNT/B heavy chain, recombinant) (Clostridium botulinum, UniProt P10844 853-1291)
# T2 sequence: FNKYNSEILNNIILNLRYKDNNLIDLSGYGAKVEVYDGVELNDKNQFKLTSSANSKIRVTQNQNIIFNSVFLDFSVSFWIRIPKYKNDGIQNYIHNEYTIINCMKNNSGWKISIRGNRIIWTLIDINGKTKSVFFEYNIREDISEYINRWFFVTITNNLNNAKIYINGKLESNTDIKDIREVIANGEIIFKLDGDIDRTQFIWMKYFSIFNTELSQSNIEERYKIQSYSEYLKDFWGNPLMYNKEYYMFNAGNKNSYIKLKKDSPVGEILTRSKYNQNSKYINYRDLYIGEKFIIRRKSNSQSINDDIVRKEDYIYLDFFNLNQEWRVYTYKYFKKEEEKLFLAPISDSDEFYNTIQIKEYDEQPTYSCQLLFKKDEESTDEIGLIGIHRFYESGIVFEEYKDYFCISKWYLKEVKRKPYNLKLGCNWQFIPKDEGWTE
# T3: BoNT/F1 (proteolytic BoNT/F) (Clostridium botulinum, UniProt A7GBG3 1-1278)
# T3 sequence: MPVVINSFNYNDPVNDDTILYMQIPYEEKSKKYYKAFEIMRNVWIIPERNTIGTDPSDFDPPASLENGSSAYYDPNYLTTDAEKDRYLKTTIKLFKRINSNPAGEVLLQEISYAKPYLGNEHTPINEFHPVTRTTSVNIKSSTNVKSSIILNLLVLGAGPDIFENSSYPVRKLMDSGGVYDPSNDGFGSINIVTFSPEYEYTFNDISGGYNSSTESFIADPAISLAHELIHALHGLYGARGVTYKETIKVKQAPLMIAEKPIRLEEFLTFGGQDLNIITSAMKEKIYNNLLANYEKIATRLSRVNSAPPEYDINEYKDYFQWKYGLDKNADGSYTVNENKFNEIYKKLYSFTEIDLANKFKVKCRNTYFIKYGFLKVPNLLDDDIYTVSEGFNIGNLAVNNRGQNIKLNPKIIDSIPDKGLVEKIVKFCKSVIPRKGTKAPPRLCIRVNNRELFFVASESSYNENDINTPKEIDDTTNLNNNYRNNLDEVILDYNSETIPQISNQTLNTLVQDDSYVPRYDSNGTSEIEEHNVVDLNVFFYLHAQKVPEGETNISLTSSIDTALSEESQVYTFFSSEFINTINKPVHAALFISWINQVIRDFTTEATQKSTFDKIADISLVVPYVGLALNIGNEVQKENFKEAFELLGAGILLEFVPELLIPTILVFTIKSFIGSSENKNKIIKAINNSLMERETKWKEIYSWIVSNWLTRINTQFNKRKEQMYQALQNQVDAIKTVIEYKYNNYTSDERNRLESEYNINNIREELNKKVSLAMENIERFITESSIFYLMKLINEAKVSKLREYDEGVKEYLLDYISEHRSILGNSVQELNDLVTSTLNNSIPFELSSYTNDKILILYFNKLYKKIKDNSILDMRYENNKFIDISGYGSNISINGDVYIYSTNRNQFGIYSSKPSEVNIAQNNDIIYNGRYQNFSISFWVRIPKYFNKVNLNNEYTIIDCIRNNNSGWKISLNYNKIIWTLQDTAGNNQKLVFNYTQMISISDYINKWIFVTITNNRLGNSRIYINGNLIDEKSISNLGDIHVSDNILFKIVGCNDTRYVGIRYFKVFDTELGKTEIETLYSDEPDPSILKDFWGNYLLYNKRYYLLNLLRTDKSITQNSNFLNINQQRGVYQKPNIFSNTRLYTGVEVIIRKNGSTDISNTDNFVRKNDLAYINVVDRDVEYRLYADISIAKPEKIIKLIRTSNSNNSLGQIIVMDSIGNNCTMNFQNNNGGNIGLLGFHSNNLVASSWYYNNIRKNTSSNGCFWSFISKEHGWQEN
# B1: 26B2 scFv (scFv)
# scFv: DVQLQESGPELVKPGASVKISCKASGYTFADYYINWVKQSHGKSLEWIGDFNPNNGDHSYNQKFKDKATLTVDESSNTAYMELRSLTSEDSAVYYCTREFYYYFDVWGTGTSVTVSSVDLKSGGSTSGSGKPGSGEGSSGSARDIEMTQTPAIMSASPGEKVTMTCSASSSVSSRYLHWYQQKSGASPKLWIYGTSNLASGVPARFSGSGSGTSYSLTISNVEAEDAATYYCQQYHSDPLTFGAGTKLEIK
# notes: mouse
# B2: 26D9 scFv (scFv)
# scFv: DVQLQESGAELVKPGASVKLSCKASGFTFTDYWMHWVKQRPGQGLEWIGMIHPYNGDNNYHEKFKSKATLTVDKSSSTAYMQLSSLTTEDSAVYYCVRNDYDPYYYALDYWGQGTSLTVSAVDLKSGGSTSGSGKPGSGEGSSGSARQIVLTQSPAIMSASPGEKVTMSCRASSSVSYVYWYQQKPGSSPKPWIYRTSNLASGVPVRFSGSGSGTSYSLTISRVEAEDAATYYCQQWSSYPPTFGGGTKLEIK
# notes: mouse
# B3: 6A2M IgG (antibody, V domains shown)
# VH: EVQLQQSGAELVRPGTSVKLSCKSSGYTFTSDWMHWVIQRPGQGLEWIGVIDPSDSYTNYNQKFKGKATLTVDTSSSTAYMHLSSLTSEDSAVYYCARREGHYYGKAMDYWGQGTSVTVSS
# VL: DIVMSQSPASLAVSLGQRATISCRASESVDYDGDSYMNWYQQKPGQPPKLLIYAASNLESGIPARFSGSGSGTDFTLNIHPVEEEDAATYYCLQSNEAPWTFGGGTKLEIK
# notes: IgG converted from scFv
# B4: 28H4 scFv (scFv, V domains shown)
# VH: EVQLQQSGAELAKPGASVKLSCKASGYTFTSYWMHWVKQGPGQGLEWIGAIYPGNSDTGYNQKFKGKAKLTAVTSASTAYMELSSLTNEDSAVYYCTRHGYYIYALDYWGQGTSVTVSS
# VL: DIVLTQSPAIMSASPGEKVTMTCSASSSVSYMYWYQQKPGSSPKPWIYRTSNLASGVPVRFSGSGSGTSYSLTISSMEAEDAATYYCQQYHNFPPTFGGGTKLEIK
# B5: 29B8 scFv (scFv, V domains shown)
# VH: EVQLQQSGAELVKPGASVKLSCTASGFNIKDYYMHWVKQRTEQGLEWIGRIDPEDGETKYAPKFQGKATITADTSSNTAYLQLSSLTSEDTAVYYCVSLLRSRTGYFDYWGQGTTLTVSS
# VL: ENVLTQSPAIMSASPGEKVTMTCSASSSVSYMHWYQQKSGTSPKRWIYDTSNLAPGVPARFSGSGSGTSYSLTISSMEAEDAASYFCHQWSSYPYTFGGGTKLEIK
# B6: 30C8 scFv (scFv, V domains shown)
# VH: EVQLKQSGTELVKPRSSVKMSCKASGYTFTDYWIGWTKQRPGHGLEWIGHIYPGGGYTNYNEKFKGKATLTADISSSAAYMQFSSPTSEDSAIYYCARIIMVESGDWYFDVWGTGTTLTVSS
# VL: DIVLTQSPAIMSASLGEEITLTCSASSSVSYMHWYQQKSGTSPKLLIYSTSNLASGVPSRFSGSGSGTSYSLTISNMEAEDAATYYCQQWSSNPYTFGGGTKLELK
# B7: 29A2 scFv (scFv, V domains shown)
# VH: EVQLLETGGDLVKPGGSLKLSCAASGFTFSYYGMSWVRQTPDKRLEWVATISSGGSYTYYPDSVKGRFTISRDNAKNTLYLQMSSLKSEDTAMYYCARRRVYYGSSYEDYWGQGTTLTVSS
# VL: EIVLTQSPALMSASPGEKVTMTCSASSSVSYMYWYQQKPRSSPKPWIYLTSNLASGVPARFSGSGSGTSYSLTISSMEAEDAATYYCQQWSSNPYTFGGGTKLELK
# B8: 28C11 scFv (scFv, V domains shown)
# VH: EVQLQESGGDLVKPGGSLKLSCAASGFTFSYYGMSWVRQTPDKRLEWVATISSGGTYTYYPDSVKGRFTISRDNAKNTLYLQMSSLSSEDTAMYYCARRRSYDSVYWYFDVWGAGTSVTVSS
# VL: DIVLTQSPAITAASLGQKVTITCSASSSGSYIHWYQQKSGTSPKLLIYRTSNLASGVPSRFSGSGSGTFYSLTISSVEAEDAADYFCHQWSSYPTFGGGTKLEIK
# B9: 6A3M IgG (antibody, V domains shown)
# VH: EVQLQQSGAELVKPGASVKLSCKASGYTFTSYWMHWIKQRPGQGLEWIGVIDPSDSYTNYNQKFKGKATLTVDTSSSTAYMQLSSLTSEDSAVYYCATGGNGFFDYWGQGTTLTVSS
# VL: DIVLTQSPASLAVSLGQRATISCRASESVDYDGDSYMNWYQQKPGQPPKLLIYAASNLESGIPARFSGSGSGTDFTLNIHPVEEEDAATYYCLQSNEAPWTFGGGTKLELK
# notes: IgG converted from scFv
# B10: 6A4M IgG (antibody, V domains shown)
# VH: EVQLQQSGAELVRPGTSVKLSCKASGYTFTSYWMHWVKQRPGQGLEWIGVIDPSDSYTNYNQKFKGKATLTVDTSSSTAYMQLSSLASEDSAVYYCARYPGNRAMDYWGQGTSVTVSS
# VL: DIVLTQSPASLAVSLGQRATISCRASESVDYDGDSYMNWYQQKPGQPPKLLIYAASNLESGIPARFSGSGSGTDFTLNIHPVEEEDAATYYCLQSNEAPWTFGGGTKLEIK
# notes: IgG converted from scFv
# Key:
# BoNT/B1 = biological target: T1, BoNT/B1; test: yeast scFv FACS
# [1] = biological target: T2, BoNT/B HC (C-terminal domain of the …); test: yeast scFv FACS
# [2] = biological target: BoNT/A light chain (recombinant) (Clostridium botulinum, UniProt P0DPI0 1-448); test: KinExA, IgG
# [3] = biological target: T3, BoNT/F1 (proteolytic BoNT/F); test: yeast scFv FACS
# [4] = biological target: T3, BoNT/F1 (proteolytic BoNT/F); test: yeast scFv FACS; remark: listed apart in the source
# Sequence of BoNT/A light chain (recombinant) (P0DPI0 1-448 limits assumed): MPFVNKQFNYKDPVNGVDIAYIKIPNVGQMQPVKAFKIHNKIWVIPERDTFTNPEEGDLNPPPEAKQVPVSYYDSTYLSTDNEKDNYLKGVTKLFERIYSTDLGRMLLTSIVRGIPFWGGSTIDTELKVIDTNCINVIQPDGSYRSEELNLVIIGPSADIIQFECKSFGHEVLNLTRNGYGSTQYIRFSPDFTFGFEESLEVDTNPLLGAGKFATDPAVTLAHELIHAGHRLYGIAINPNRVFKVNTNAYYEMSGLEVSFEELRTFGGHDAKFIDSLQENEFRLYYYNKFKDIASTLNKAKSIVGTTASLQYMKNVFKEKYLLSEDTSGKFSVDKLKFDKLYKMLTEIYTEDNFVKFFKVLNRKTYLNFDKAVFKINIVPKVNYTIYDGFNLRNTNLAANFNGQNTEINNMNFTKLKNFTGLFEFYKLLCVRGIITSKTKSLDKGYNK
Binder,Kd [2],Kd [3],Kd [4],other results
B1,–,–,–,Kd (BoNT/B1): 0.276 nM; Kd [1]: 0.086 nM
B2,–,–,–,Kd (BoNT/B1): 0.582 nM; Kd [1]: 0.089 nM
B3,45 nM,–,–,–
B4,–,20 nM,20 nM,–
B5,–,35.8 nM,35.8 nM,–
B6,–,0.2 nM,0.2 nM,–
B7,–,0.99 nM,0.99 nM,–
B8,–,0.12 nM,0.12 nM,–
B9,10 nM,–,–,–
B10,21 nM,–,–,–
